This data set relates to ATP. As to the kind of experiment: switch fluorescence ratio, 500 uM ATP over buffer (Cy3 cluster intensity, sum of 5 cycles each) (fold (ratio)); higher = stronger signal-on switching upon ATP binding; sequences stand for … in TCGTCGGCAGCGTCAGATGTGTATAAGAGACAGTTTTTTTTTTTTTTTTTTTTTTTTT…TC. To be noted: aptamer strand: ATP DNA aptamer (quencher-CACCTGGGGGAGTATTGCGGAGGAAGG + anchor), 100 nM annealed; ATP concentration: 500 uM. The gist of the method: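 Cy3-labelled switching-strand clusters on a modified Illumina MiSeq flow-cell were annealed to 100 nM quencher-labelled ATP aptamer, imaged in selection buffer, then imaged after 15 min with 500 uM ATP at 22 °C. Five buffer/ATP cycles ran, with NaOH stripping and re-annealing between them. The fluorescence ratio is summed target-cycle over summed buffer-cycle Cy3 intensity per cluster, averaged per switch-domain sequence. Clusters outside 100-1000 RFU were excluded.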

In the supplement of paper PMC10126150 one finds switch fluorescence ratio data, which are given here for 78 sequences.

± gives the standard deviation of the averaged measurements.
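Note: ATP exposure 15 min at 22 °C before imaging.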

TTTTAGGGTA: the switch fluorescence ratio was determined as 1.03 ± 0.017.

Consider CAGGATAGGC, for which the switch fluorescence ratio amounted to 1.003 ± 0.0044.

With GAGGGATTCC, the switch fluorescence ratio worked out at 1.06 ± 0.095.

As for AGGGTCCCGC, the switch fluorescence ratio stood at 0.9929 ± 0.0024.

TCGAATGTGC: the switch fluorescence ratio turned out to be 0.989 ± 0.022.

TCGGTTTTGC: the switch fluorescence ratio is 0.982 ± 0.028.

In the case of GCGGTGGGGT, the switch fluorescence ratio stood at 1.01 ± 0.018.

Consider GGGTGATGTG, for which the switch fluorescence ratio is 0.955 ± 0.022.

Turning to TCGTATTACA, the switch fluorescence ratio was determined as 1.011 ± 0.0035.

As to TCATCGTGCC, the switch fluorescence ratio is 0.99 ± 0.032.

Consider TTGAATTAGA, for which the switch fluorescence ratio came out at 0.965 ± 0.025.

Regarding CATTCAGGGG, the switch fluorescence ratio amounted to 1.2 ± 0.061.

With TGATCGCTTT, the switch fluorescence ratio came out at 1.026 ± 0.01.

In the case of ATTGCTGTTT, the switch fluorescence ratio was found to be 1.037 ± 0.0019.

GTTTTTTTGC: the switch fluorescence ratio worked out at 0.9766 ± 0.006.

For AGAATGGTGA, the switch fluorescence ratio amounted to 0.96 ± 0.061.

For GGGCGTTGTG, the switch fluorescence ratio stood at 1.05 ± 0.11.

ACGATTTAAG: the switch fluorescence ratio stood at 1.03 ± 0.05.

On to GCTGCATATA, for which the switch fluorescence ratio was determined as 1.066 ± 0.0095.

On to ACAGTTCTTG, for which the switch fluorescence ratio amounted to 0.997 ± 0.023.

In the case of TTCGGGGGAA, the switch fluorescence ratio came to 0.993 ± 0.075.

For TTCGGCCGGT, the switch fluorescence ratio is 0.998 ± 0.011.

Consider TTTAGATGCT, for which the switch fluorescence ratio was 1.03 ± 0.099.

For GGGCAAAGGT, the switch fluorescence ratio amounted to 1.09 ± 0.16.

For the sequence TGATTTATGA, the switch fluorescence ratio worked out at 0.9924 ± 0.0067.

In the case of AGTTGGGGTT, the switch fluorescence ratio stood at 1.035 ± 0.0033.

Consider TCATTTGGAT, for which the switch fluorescence ratio worked out at 1 ± 0.023.

For CTCGTAGGGA, the switch fluorescence ratio turned out to be 1.01 ± 0.027.

TTTTCGGCTC: the switch fluorescence ratio was 1.04 ± 0.048.

On to TTGTTTAGCC, for which the switch fluorescence ratio came out at 0.989 ± 0.032.

For CTTGGGGTTA, the switch fluorescence ratio came out at 0.998 ± 0.023.

As to CGGGATGTTA, the switch fluorescence ratio is 0.996 ± 0.016.

For the sequence TAGGTCTGCG, the switch fluorescence ratio is 0.978 ± 0.014.

In the case of GGGGTGCCTT, the switch fluorescence ratio is 1.037 ± 0.0021.

Consider TCGTAAAAA, for which the switch fluorescence ratio was determined as 1.07 ± 0.13.

Turning to TTTTTACGGC, the switch fluorescence ratio amounted to 1.02 ± 0.016.

With TGGTCTCTAA, the switch fluorescence ratio turned out to be 0.98 ± 0.01.

For the sequence TGTTCTAGTT, the switch fluorescence ratio was 1.01 ± 0.015.

On to CGTTTGTTCC, for which the switch fluorescence ratio amounted to 1.0348 ± 0.00023.

Regarding TAAGAGATTG, the switch fluorescence ratio stood at 1.01 ± 0.022.

As for ACGGCAGAGG, the switch fluorescence ratio was 1.09 ± 0.02.

In the case of CTTTAAGGGA, the switch fluorescence ratio was determined as 0.9875 ± 0.0035.

Take CGCCCCAGGA: the switch fluorescence ratio came out at 1.85 ± 1.1.

Consider CGCGGCGGGT, for which the switch fluorescence ratio was determined as 1.02 ± 0.034.

As for GATATTTGTG, the switch fluorescence ratio was found to be 0.995 ± 0.016.

On to TACTGTGTAT, for which the switch fluorescence ratio came out at 1.01 ± 0.035.

Take ATAACGGGGG: the switch fluorescence ratio was found to be 1 ± 0.033.

As to GAGGATTGTG, the switch fluorescence ratio worked out at 0.976 ± 0.012.

As for CGGGGTTGCA, the switch fluorescence ratio came to 0.978 ± 0.022.

For TACCAGCGCT, the switch fluorescence ratio stood at 0.993 ± 0.058.

As to TGATGTACGT, the switch fluorescence ratio came out at 1 ± 0.011.

Consider TTCCCTTTTT, for which the switch fluorescence ratio turned out to be 1.03 ± 0.019.

As for TTCCATTCGA, the switch fluorescence ratio was found to be 0.992 ± 0.044.

Turning to GCTGGGGCGT, the switch fluorescence ratio was found to be 0.9851 ± 0.005.

With CGGGGGAGCC, the switch fluorescence ratio amounted to 1.02 ± 0.025.

GGGACTAGTG: the switch fluorescence ratio turned out to be 1 ± 0.029.

As to TTTCTCTGAG, the switch fluorescence ratio was 1.04 ± 0.033.

Turning to TTAACTGGAA, the switch fluorescence ratio was found to be 0.978 ± 0.031.

Consider GACGGGTCTC, for which the switch fluorescence ratio stood at 1.001 ± 0.0098.

Take AGTAGTAAGT: the switch fluorescence ratio amounted to 1.01 ± 0.012.

Take TATTAAGAAT: the switch fluorescence ratio stood at 0.987 ± 0.0043.

On to TTCTAGGTCT, for which the switch fluorescence ratio was 1.02 ± 0.037.

CGGTCAGGGC: the switch fluorescence ratio is 1.02 ± 0.014.

For AAAAAATAG, the switch fluorescence ratio stood at 0.985 ± 0.013.

Turning to AGTACGGGGG, the switch fluorescence ratio was found to be 0.992 ± 0.021.

With TTGCGAGGTG, the switch fluorescence ratio came to 1.039 ± 0.0055.

For TTCGGGAGGT, the switch fluorescence ratio was 1.05 ± 0.13.

Consider TTGTATGTAG, for which the switch fluorescence ratio is 1.02 ± 0.021.

As for GGCTGGGCGA, the switch fluorescence ratio amounted to 0.983 ± 0.02.

For the sequence TAAAACGGTG, the switch fluorescence ratio worked out at 1.05 ± 0.029.

For TTCCAGTAAT, the switch fluorescence ratio worked out at 1.01 ± 0.024.

For the sequence AAATGTTACA, the switch fluorescence ratio turned out to be 1.06 ± 0.021.

In the case of ACTCACGGAG, the switch fluorescence ratio was found to be 1.16 ± 0.036.

For the sequence CGTTCAATGG, the switch fluorescence ratio was found to be 1.23 ± 0.05.

For the sequence GGGATGAGGT, the switch fluorescence ratio came out at 1 ± 0.033.

As to GAGCAGTCGG, the switch fluorescence ratio came out at 0.982 ± 0.036.

With GAGATCGAGG, the switch fluorescence ratio stood at 1.03 ± 0.017.

Consider TTATTTGGTC, for which the switch fluorescence ratio was 1 ± 0.056.
